Here are results for 14 molecules from US20260055441A1, “A PCR-ELISA ANALOGOUS ANTIBODY-FREE METHOD FOR DETECTING A TARGET NUCLEIC ACID IN A SAMPLE” (UNIVERSITÄT HEIDELBERG, priority 2022, published 2026).

The conditions of data set [1]: cited from earlier work; for pKa (H2O): published values, source mark b or d legible.
The target in another data set is T1, latent papain P13 (Carica papaya, UniProt P00784).
T1 construct: purchased Sigma Aldrich (Munich, Germany); host or cells: Papaya latex (natural source)
T1 sequence (P00784 134-345): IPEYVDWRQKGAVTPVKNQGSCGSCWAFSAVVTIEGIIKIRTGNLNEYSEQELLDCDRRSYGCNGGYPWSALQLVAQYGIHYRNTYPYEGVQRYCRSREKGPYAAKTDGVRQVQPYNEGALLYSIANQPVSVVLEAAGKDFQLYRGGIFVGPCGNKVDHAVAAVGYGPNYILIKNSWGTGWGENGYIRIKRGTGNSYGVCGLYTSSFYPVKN
Nature of the data set: Latent papain reactivation assay with thiol activators at 10 μM, rates normalized to 10 μM cysteine (FIG. 18). As to conditions: activator 10 μM, latent papain 1 nM, Z-Phe-Arg-AMC 2 μM; for normalized ratio rate/rate 10 μM cysteine of substrate hydrolysis after reactivation of latent papain: well buffer pH 7, no TCEP. The data set is classed as biochemical. On the procedure:
All following described fluorometric assays (Examples 1-3) are based on the reaction of reversibly inactivated papain (latent papain) with an activator containing either sulfur or selenium (with the exception of TCEP). Different latent papain forms, buffer compositions and activators in various concentrations were compared. Papain was hereby transferred in buffer (standard well buffer consisted of 0.1 M phosphate pH 7, 4 mM EDTA, 0.01% Brij35 and if activators contained diselenides, 1 μM TCEP) mixed with activator and substrate inside 96 well plates (without prior washing of the plates). After reactivation, active papain hydrolyses the substrate Z-Phe-Arg-AMC (2 μM) and the resulting fluorescence was tracked every minute for 2 h. The slopes of the corresponding curves were calculated for the linear portion within the first 30 minutes and the resulting reaction rates were directly compared. Resulting reaction rates directly reflect reactivation efficiencies of each activator under each reaction condition. […] After addition of activator a fraction of latent papain is immediately reactivated in rather non-stoichiometric proportions. Complete reactivation can generally only be achieved with great excess of activator. The partial reactivation with smaller activator amounts appears almost instantaneously because the resulting reaction curve show linear progression from the start except for very low activator concentrations. After reactivation, all different latent papain forms result in the same active enzyme. If different latent papain forms show different reaction rates in identical activation assays, the efficiency of reactivation with the applied activator can be deduced. The same applies for reactivation of one latent papain form with different activators or reaction conditions.
Several thiol compounds and cysteine containing peptide activators (see Example 4.1) were compared for their potential to reactivate latent papain. To this end, the thiol compounds and cysteine containing peptide activators were utilized in reactivation assays (see Example 5, 5.2.2.2, fluorometric method 2) of papain P13 (see Example 1, 1.2) with an activator concentration of 10 μM. For thiols not completely soluble in phosphate buffer pH 7 at high concentrations, the 1 mM stock solution was prepared in DMSO, resulting in 1% DMSO in the reaction mixture. In order to normalize the observed reaction rates between assays, a 10 μM cysteine sample was additionally measured in every assay and reaction rates of the examined thiols were divided through the reaction rates produced by the 10 μM cysteine standard. Additionally, a measurement with 1 mM cysteine was performed in order to achieve maximal papain activation and therefore the maximal reaction rate within the confines of the assay. The resulting normalized rates are compared in FIG. 18.
(§1) Different assays of reactivating latent papain in solution were conducted in the course of this work. Various buffer compositions, supplements, 96 well plates, substrates, activators, concentrations as well as different latent papain forms were compared. In order to get an overview of all experiments, a standard method is described in the following and variations of this method are subsequently defined. First, the well buffer was prepared (0.1 M phosphate buffer pH 7, 4 mM EDTA, 0.01% Brij35). A 1 mM TCEP solution was prepared with 3 mM NaOH in 0.1 M Tris-HCl buffer pH 8. Papain substrate (Z-Phe-Arg-AMC or Suc-Leu-Leu-Val-Tyr-AMC) was prepared as a 200 μM solution in water and transferred equally to a PCR strip. Three serial dilutions of the activating agent with well buffer were used in the different experiments and the corresponding pipetting schemes are shown in Table 9. Papain was diluted to 0.1 μM with well buffer and transferred equally to a PCR strip. After preparation of the abovementioned solutions, TCEP (1 mM solution) was added to well buffer to yield a final TCEP concentration of 1.1 μM. […]

Data set [2] concerns the target T2, dU-triazole-PEG3-ULR dimer (21) (not fully specified).
T2 chain: ULR

The target of data set [3] is T3, latent papain forms P20-P28 (Carica papaya, UniProt P00784).
T3 construct: purchased Sigma Aldrich (Munich, Germany); host or cells: Papaya latex (natural source)
T3 sequence (P00784 134-345): T1 sequence (P00784 134-345)
Description: Comparison of reactivation efficiencies of latent papain forms with activator dU-triazole-PEG3-ULR (21) (FIG. 15, 16). The data set is classed as biochemical. As to conditions: for normalized rate/rate blank after reactivation, in words / reaction rate of substrate hydrolysis after reactivation (not normalized), in words: activator dU-triazole-PEG3-ULR (21) 1-15 nM; for normalized rate/rate blank after reactivation, in words: papain 1 nM (FIG. 16); for reaction rate of substrate hydrolysis after reactivation (not normalized), in words: papain 1 nM (FIG. 15). On the procedure: In order to reversibly deactivate commercially purchased papain, reactions with different thiosulfonate derivatives were carried out and different latent papain versions were produced. Papain was first incubated with cysteine to yield complete activated papain which could then be incubated and deactivated with the specific thiosulfonate solutions. A mixture of papain disulfides is otherwise to be expected. An additional step was introduced in this work with the goal of further reduction of residual enzymatic activity. After incubation with either thiosulfonate derivative, papain was thus incubated with equimolar amounts of the more efficient irreversible inhibitor E64 (see Example 5, 5.2.1.2) in order to deactivate possible unmodified papain traces. The excess of small molecules was then separated by Sephadex G25 spin columns. Different thiosulfonates were synthesized (data not shown) and used to produce different latent papain forms, to the authors best knowledge yet unknown to literature (P23, P24 and P26), with their reactivation efficiency directly compared. The four thiosulfonates S-benzyl (1)-, S-propyl (2)-, S-(2-acetic acid) (3)- and S-(2-aminoethyl) (5)-ethanethiosulfonate are shown in FIGS. 6 and 13.
All latent papain forms were synthesized as described (see Example 5, 5.2.1.2) and concentrations of the stock solutions were determined (see Example 5, 5.2.1.3) and are shown in FIG. 14. In favor of allowing for precise comparison of all different papain forms, papain P20-28 were produced and processed simultaneously, whereas production of P28 differed in lack of pre-activation with cysteine and incubation with E64 in order to examine if those two steps are indeed affecting the latent papain quality (P20 vs. P28).
The successfully produced latent papain forms were then utilized in a reactivation assay in accordance with the method of the invention (see Example 5, 5.2.2.2), fluorometric method 1) with the selenocysteine containing activator dU-triazole-PEG3-ULR (21) in concentrations from 1 nM-15 nM. The resulting reaction rates of every papain and every activator concentration are directly compared in FIG. 15.
On second look, it becomes clear that the calculated rates have to be considered in relation to the residual papain activity. Without activator present, the rates of papain differ greatly between the latent derivatives. This must be due solely to their chemical properties and not to a result of remaining active papain after incubation with thiosulfonate, because subsequent incubation with equimolar amounts of E64 inhibitor will inevitably deactivate remaining active papain irreversibly (see Example 5, 5.2.1.2). In order to normalize the presented reaction rates, they were divided through the reaction rate of the corresponding residual activity (blank value) and results are shown in FIG. 16.
as §1

“Also recorded” adds a separate entry of the source. Marks after values point to notes of the source that are not given here.

Regarding `O=[N+]([O-])c1ccc(S)nc1` [2-mercapto-5-nitropyridine, 2-Mercapto-5-nitropyridine], the “pKa of thiol, as discussed in text” value in data set [1] is recorded as 7.1. The “reaction rate compared to L-cysteine” value at latent papain P13 (pH 7) was “less than 15%”. `Sc1ccc(Br)cc1` [4-Bromothiophenol]: the “pKa (H2O)” value in data set [1] is recorded as 6.0^b. For the molecule `COc1ccc(S)cc1` [4-Methoxythiophenol], the “pKa (H2O)” value in data set [1] is listed as 6.8^b.

With `SCc1ccccc1` [benzyl mercaptan, Benzylmercaptan], the “pKa (H2O)” value in data set [1] is given as 9.4^b. Besides, the “normalized ratio rate/rate 10 μM cysteine of substrate hydrolysis after reactivation of latent papain” value at latent papain P13 was determined as 1.69. Consider `O=S(=O)(CCS)CCS` [bis(2-mercaptoethyl) sulfone], for which, in data set [1], the “pKa of thiol, as discussed in text” value is 7.9. For the same molecule, the “normalized ratio rate/rate 10 μM cysteine of substrate hydrolysis after reactivation of latent papain” value on latent papain P13 came to 3.17.

B1: latent papain P23 (-S-S-(CH2)2-NH2) (protein)
chain: T1 sequence (P00784 134-345)
Consider B1, for which the “reaction rate of Z-Phe-Arg-AMC hydrolysis after reactivation of latent papain (1 nM) with activator 1-15 nM” value (“reaction rate … with activator 1-15 nM” below) in data set [2] was “papain P23, containing the positively charged amino group, was found to be by far the most efficiently reactivated latent papain form”.

B2: P20: latent papain, methyl mixed disulfide, with cysteine pre-activation and E64 (protein)
chain: T1 sequence (P00784 134-345)
For the molecule B2, in data set [3], the “normalized rate/rate blank after reactivation, in words” value (“normalized rate/rate blank” below) is recorded as “highest of all papain forms; also recorded: twice as high as P28”. In addition, in data set [3] (without activator (blank), papain 1 nM), the “residual activity rate compared to P23” value came to 25%.

B3: P24: latent papain form with negatively charged acetic acid disulfide residue (protein)
chain: T1 sequence (P00784 134-345)
Regarding B3, the “normalized rate/rate blank” value in data set [3] is “low normalized rates”.

B4: P23: latent papain form with positively charged aminoethyl disulfide residue (protein)
chain: T1 sequence (P00784 134-345)
Regarding B4, the “reaction rate of substrate hydrolysis after reactivation (not normalized), in words” value in data set [3] is recorded as “by far the most efficiently reactivated latent papain form”.

B5: latent papain P26 (S-S-CH2-C6H5) (protein)
chain: T1 sequence (P00784 134-345)
Take B5: in data set [2], the “normalized ratio rate/rate blank of substrate hydrolysis after reactivation of latent papain (1 nM) with activator 1-15 nM” value (from here on “normalized ratio rate/rate blank”) was “papain P26 showed the third highest normalized rate values” and the “reaction rate … with activator 1-15 nM” value is listed as “The papain variant P26 with its benzyl residue showed greatly reduced rates when compared to all other variants”.

B6: latent papain P25 (-S-S-(CH2)2-CH3) (protein)
chain: T1 sequence (P00784 134-345)
For the molecule B6, in data set [2], the “normalized ratio rate/rate blank” value is “The second aliphatic residue of P25 showed surprisingly low reactivation potential towards the activator”.

B7: latent papain P24 (-S-S-CH2-COOH) (protein)
chain: T1 sequence (P00784 134-345)
For the molecule B7, in data set [2], the “normalized ratio rate/rate blank” value was “featured low normalized rates as seen for P24” and the “reaction rate … with activator 1-15 nM” value is recorded as “Papain P24 with its negatively charged residue showed reaction rates close to Papain P20 with the methyl residue”.

B8: P25: latent papain form with propyl disulfide residue (protein)
chain: T1 sequence (P00784 134-345)
Consider B8, for which the “normalized rate/rate blank” value in data set [3] is “surprisingly low reactivation potential”.

B9: P26: latent papain form with benzyl disulfide residue (protein)
chain: T1 sequence (P00784 134-345)
For B9, in data set [3], the “reaction rate of substrate hydrolysis after reactivation (not normalized), in words” value is reported as “greatly reduced rates” and the “normalized rate/rate blank” value is “third highest normalized rate values”.
